Target: T1, Full-length human histidine-tagged Ndel1 phosphorylated in vitro by both cdk5/p25 and cdk1/cyclin B (human, UniProt Q9GZM8 1-345)
T1 sequence: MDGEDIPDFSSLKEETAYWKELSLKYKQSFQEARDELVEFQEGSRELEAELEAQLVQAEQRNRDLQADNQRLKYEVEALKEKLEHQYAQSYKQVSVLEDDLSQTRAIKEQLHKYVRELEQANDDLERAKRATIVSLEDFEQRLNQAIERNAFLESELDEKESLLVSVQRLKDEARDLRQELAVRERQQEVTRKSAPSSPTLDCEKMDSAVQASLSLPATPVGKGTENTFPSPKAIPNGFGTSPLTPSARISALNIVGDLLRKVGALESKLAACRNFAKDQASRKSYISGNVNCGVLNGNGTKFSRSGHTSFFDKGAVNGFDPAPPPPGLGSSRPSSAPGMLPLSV
Assay: co-IP

B1: Full-length Lis1, histidine tag cleaved (natural protein)
chain: MVLSQRQRDELNRAIADYLRSNGYEEAYSVFKKEAELDVNEELDKKYAGLLEKKWTSVIRLQKKVMELESKLNEAKEEFTSGGPLGQKRDPKEWIPRPPEKYALSGHRSPVTRVIFHPVFSVMVSASEDATIKVWDYETGDFERTLKGHTDSVQDISFDHSGKLLASCSADMTIKLWDFQGFECIRTMHGHDHNVSSVAIMPNGDHIVSASRDKTIKMWEVQTGYCVKTFTGHREWVRMVRPNQDGTLIASCSNDQTVRVWVVATKECKAELREHEHVVECISWAPESSYSSISEATGSETKKSGKPGPFLLSGSRDKTIKMWDVSTGMCLMTLVGHDNWVRGVLFHSGGKFILSCADDKTLRVWDYKNKRCMKTLNAHEHFVTSLDFHKTAPYVVTGSVDQTVKVWECR
fold more Lis1 pulled down than by unphosphorylated Ndel1: ~5 fold

Source: publication PMC2542469 (The Journal of Cell Biology, 2008)
